From the supplement of paper PMC7877785
± gives the uncertainty stated by the source.

Assay: self-splicing fitness, log relative to wild type (ln ratio); higher = more splicing; Tetrahymena group I intron in knt gene, E. coli kanamycin selection, DiMSum; sequences stand for … in CUCUCU…GGAGGGAAAAGUUAUCAGGCAUGCACCUGGUAGCUAGUCUUUAAACCAAUAGAUUGCAUCGGUUUAAAAGGCAAGACCGUCAAAUUGCGGGAAAGGGGUCAACAGCCGUUCAGUACCAAGUCUCAGGGGAAACUUUGAGAUGGCCUUGCAAAGGGUAUGGUAAUAAGCUGACGGACAUGGUCCUAACCACGCAGCCAAGUCCUAAGUCAACAGAUCUUCUGUUGAUAUGGAUGCAGUUCACAGACUAAAUGUCGGUCGGGGAAGAUGUAUUCUUCUCAUAAGAUAUAGUCGGACCUCUCCUUAAUGGGAGCUAGCGGAUGAAGUGAUGCAACACUGGAGCCGCUGGGAACUAAUUUGUAUGCGAAAGUAUAUUGAUUAGUUUUGGAGUACUCGUGGUCG
How it was run: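 Fitness was computed with DiMSum as the error-weighted combination of replicate fold changes, kanamycin versus none, each normalised to wild type. The library randomised all eight intron nucleotides of the P1ex region, with the intron placed in the knt kanamycin-resistance gene on pET-22b(+) in E. coli BL21(DE3). Six replicate transformations were grown overnight at 37°C or 30°C on LB agar with or without 25 μg/mL kanamycin, plus 100 μg/mL carbenicillin, 50 μM IPTG and 0.2% rhamnose. Pooled colonies were amplicon-sequenced on an Illumina HiSeq 2500.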

| Sequence | self-splicing fitness (ln) (30 °C) | self-splicing fitness (ln) (37 °C) |
| --- | --- | --- |
| CUACAGCAAUAUUACGAGCU | -3.01 ± 0.21 | -2.19 ± 0.19 |
| AGAUAGCAAUAUUACGCGCG | 0.343 ± 0.18 | -0.618 ± 0.2 |
| UUCGAGCAAUAUUACGGGGA | -1.7 ± 0.18 | -0.829 ± 0.19 |
| UUGCAGCAAUAUUACGGUUA | 0.353 ± 0.082 | 0.0359 ± 0.075 |
| UGUUAGCAAUAUUACGCUCG | -0.015 ± 0.18 | -0.0235 ± 0.21 |
| UCAAAGCAAUAUUACGGUAA | -2.48 ± 0.16 | -0.268 ± 0.13 |
| UUUGAGCAAUAUUACGUUUU | -3.55 ± 0.19 | -2.65 ± 0.17 |
| ACCAAGCAAUAUUACGCGUU | -1.91 ± 0.06 | -0.292 ± 0.075 |
| GAUAAGCAAUAUUACGUGUG | -1.96 ± 0.079 | -0.282 ± 0.094 |
| UAGAAGCAAUAUUACGAACU | -1.79 ± 0.14 | 0.0205 ± 0.13 |
| CGGAAGCAAUAUUACGAUUA | -1.17 ± 0.18 | -1.56 ± 0.16 |
| GAAUAGCAAUAUUACGGGGG | -2.93 ± 0.26 | -1.87 ± 0.25 |
| ACGUAGCAAUAUUACGGAUC | -1.97 ± 0.096 | -0.313 ± 0.097 |
| CUGCAGCAAUAUUACGAGGC | -2.65 ± 0.17 | -1.97 ± 0.22 |
| AGGCAGCAAUAUUACGGUUG | -3.28 ± 0.18 | -1.46 ± 0.17 |
| CACUAGCAAUAUUACGAGAG | -3.21 ± 0.2 | -1.73 ± 0.14 |
| UGUCAGCAAUAUUACGCAUA | -0.485 ± 0.06 | 0.0762 ± 0.068 |
| CUCCAGCAAUAUUACGGAGC | -1.83 ± 0.12 | -2.69 ± 0.2 |
| AAUGAGCAAUAUUACGCCGC | – | -1.7 ± 0.42 |

| Sequence | self-splicing fitness (ln) (30 °C) | self-splicing fitness (ln) (37 °C) |
| --- | --- | --- |
| GUCCAGCAAUAUUACGCGCG | -1.58 ± 0.093 | -0.665 ± 0.096 |
| GCCGAGCAAUAUUACGGCAG | -3.94 ± 0.29 | -2.61 ± 0.33 |
| GCACAGCAAUAUUACGAGUA | -1.31 ± 0.084 | -0.881 ± 0.088 |
| AAGGAGCAAUAUUACGAUGG | -3.59 ± 0.27 | -2.11 ± 0.23 |
| CUCUAGCAAUAUUACGCCCA | -2.25 ± 0.4 | – |
| AUUCAGCAAUAUUACGCAUA | -0.701 ± 0.15 | -1.07 ± 0.14 |
| UCACAGCAAUAUUACGGUUG | -1.41 ± 0.087 | -0.981 ± 0.11 |
| CAGAAGCAAUAUUACGCGGU | -3.61 ± 0.12 | -2.34 ± 0.14 |
| AGUCAGCAAUAUUACGUCUC | -4.29 ± 0.31 | -2.01 ± 0.15 |
| UCCCAGCAAUAUUACGGACU | -2.81 ± 0.11 | -1.21 ± 0.096 |
| GUUGAGCAAUAUUACGAUUG | -4.05 ± 0.32 | -1.87 ± 0.27 |
| UCAAAGCAAUAUUACGGGAG | -4.12 ± 0.3 | -2.5 ± 0.19 |
| GCGAAGCAAUAUUACGUCCU | -0.0766 ± 0.14 | 0.569 ± 0.17 |
| GAGUAGCAAUAUUACGGUGA | -1.93 ± 0.16 | -1.62 ± 0.14 |
| GGAUAGCAAUAUUACGCACA | -0.523 ± 0.12 | 0.321 ± 0.14 |
| GCCAAGCAAUAUUACGUCAA | -2.75 ± 0.34 | -1.97 ± 0.22 |
| AACCAGCAAUAUUACGAGAC | -3.67 ± 0.39 | -1.71 ± 0.18 |
| UACCAGCAAUAUUACGGAGG | -2.34 ± 0.12 | -0.914 ± 0.12 |
| CGUGAGCAAUAUUACGCGUU | -3.11 ± 0.28 | -2.72 ± 0.2 |
